# Peptide text beside a SMILES is read from it.
# Legend:
# Assay type in all cases: binding
# Survivin120 K90/103T = target: T1, Survivin120 K90/103T (Homo sapiens, UniProt O15392, K103T/K90T); experiment: ITC titration of tweezers with Survivin120 K90/103T mutant
# T1 construct: the only published NMR structure originated from a truncated Survivin (aa 1-120) with improved solubility; GST with PreScission site (N); made in house; host or cells: Escherichia coli soluBL21
# Description: If the tweezer-based inhibitors indeed bind to lysines/arginines flanking the NES (K90, K91, K103, R106), their mutation to, e.g., threonine, should abolish the observed effects. For this reason, we generated double and triple Survivin120 mutants lacking these putative tweezer anchor points. Unfortunately, most double mutants and especially the triple mutants were unfolded as evidenced by 1D ^1H NMR (SI6); finally, the correctly folded double threonine mutant Survivin120 K90/103T was chosen for further investigation. […] Next, binding of FAM-labeled tweezers (SI3) to either Survivin120 wildtype or the K90/103T mutant was studied by fluorescence anisotropy (Fig. 7d–f). […] We conclude that lysines 90 and 103 are indeed essential for efficient tweezer binding.
# (§1) ITC was performed with a MicroCal iTC200 from Malvern Panalytical in PBS, pH 7.4 at 25 °C with molecular tweezers in the cell and Survivin120 in the titration syringe. The protein was dialyzed overnight at 4 °C against the PBS buffer. Ligands were dissolved in the respective dialysis buffer. Then, 300 µM TW were titrated with 300 µM Survivin120 WT or 321 µM Survivin120 K90/103T. Then, 100 µM TW-ELTL, TW-ELTLGEFL, or TW-LFEEGLLT was titrated with 1.2 mM Survivin120 WT or 2.5 mM Survivin120 K90/103T. For reverse titrations, either 33.3 or 34.4 µM Survivin120 in the cell was titrated with 5 mM TW or TW-ELTL in the syringe, respectively. All titrations were performed in PBS, pH 7.4 at 25 °C. Then, 1.5 μL injections were used with 120 s spacing time between injections. The injection rate was set to 0.5 µL/s and the reference power was 5 µcal/s. ITC thermograms were fitted to a one set of sites model with the software Origin (v7.0552) provided with the instrument. Heat of dilution was subtracted as constant from each data point.
# (§2) ITC thermograms were fitted to a one set of sites model with the software Origin provided with the instrument. Heat of dilution was subtracted as constant from each data point. From three independent experiments (n = 3), one representative example was depicted, and thermodynamic data were derived thereof. For pull-down experiments, only the representative quantification of the depicted western blot is shown. […] Fluorescence anisotropy graphs were generated with GraphPad Prism 5.0. Depicted error bars represent the standard deviation of three independent titrations.
# Survivin–CRM1 complex = target: T2, Survivin–CRM1 complex (Homo sapiens, UniProt O15392); experiment: Pull-down with 293T lysate (Survivin142-HA), GST-CRM1 bait, RanQ69L, dGTP
# T2 construct: expressed in transfected cells; host or cells: 293T cells (Survivin142-HA); E. coli soluBL21 (GST-CRM1, RanQ69L)
# T2 sequence (O15392 whole entry, one chain of several): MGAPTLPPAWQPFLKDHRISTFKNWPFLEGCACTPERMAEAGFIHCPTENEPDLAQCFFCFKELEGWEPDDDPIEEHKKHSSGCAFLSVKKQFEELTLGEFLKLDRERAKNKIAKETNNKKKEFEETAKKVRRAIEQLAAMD
# Procedure: We next investigated whether tweezers inhibit the Survivin–CRM1 complex formation in vitro. The effects of the unmodified and peptide-linked tweezers were analyzed via pull-down experiments with 293T lysates containing overexpressed HA-tagged Survivin142, recombinant GST-CRM1 as bait protein, and tweezers (Fig. 6). The parent and ELTL-linked tweezer required 10–50 µM to disrupt the Survivin–CRM1 complex. […] In order to provide experimental evidence for the sequence selectivity of the TW-ELTLGEFL ligand, a scrambled analog was synthesized and clicked to the tweezer, resulting in the hybrid molecule TW-LFEEGLLT (SI1, SI2, and SI10). […] Instead, the slight chemical shift perturbations might be due to the spatial proximity of the peptide moiety to the anchoring residue. All those results strongly indicate that the additional binding energy from the NES interface was lost due to scrambling and thus point toward specific recognition as the reason for increased selectivity and interference with the Survivin–CRM1 interaction. Of note, very high tweezer concentrations (100–200 µM) also weakened GST-CRM1 binding to GSH-Sepharose beads, most likely by low-affinity binding to the GST protein.
# (§3) All pull-down assays were performed at room temperature in pull-down buffer (PBS, pH 7.4, 1 mM DTT, 0.02 Triton X-100). GST fusion proteins were immobilized on 50 μL GSH-coated Sepharose 4B beads from GE Healthcare. The beads were prior equilibrated and blocked with 500 μL pull-down blocking buffer (PBS, pH 7.4, 1 (w/v) BSA, 1 mM DTT, 0.02 (v/v) Triton X-100) for 1 h to prevent unspecific binding.
# For analysis of the effective inhibitory tweezer concentration, 200 μg 293T lysate with overexpressed Survivin142-HA was preincubated without ligand or with different concentrations (10 nM to 200 μM) of unmodified tweezer TW, TW-ELTL, TW-ELTLGEFL, or TW-LFEEGLLT for 1 h and then mixed with 35 μg GST-CRM1, 55 μg RanQ69L, and 2 mM dGTP. GSH-beads were incubated with this protein mixture for 2 h under rotation. […]
# Samples of input and beads taken during pull-down experiments were ran on 12.5 SDS gels and transferred onto 0.2 µM PVDF membranes (Amersham Hybond P 0.2) using a PerfectBlue™ tank electro blotter (Peqlab) at 350 mA for 150 min. […] Chemiluminescence was detected and imaged using the Pierce ECL Plus Western Blotting Substrate kit (Thermo Fisher Scientific) and Chemidoc system (Bio-Rad) or film processor Cawomat 2000 IR (CAWO). Western blots were analyzed by densitometric analysis with ImageJ version 1.52p (U.S. National Institutes of Health), measuring the mean gray intensity of protein bands. […]
# Survivin120 = target: T3, Survivin120 (Homo sapiens, UniProt O15392); experiment: ITC titration of tweezers with Survivin120 wildtype
# T3 construct: the only published NMR structure originated from a truncated Survivin (aa 1-120) with improved solubility; GST with PreScission site (N); made in house; host or cells: Escherichia coli soluBL21
# T3 sequence (O15392 1-120): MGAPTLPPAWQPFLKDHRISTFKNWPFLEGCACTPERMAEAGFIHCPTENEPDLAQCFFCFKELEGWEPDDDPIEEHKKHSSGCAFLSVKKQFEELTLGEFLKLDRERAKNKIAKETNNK
# Procedure: The interaction between the tweezers and Survivin was studied by isothermal titration calorimetry (ITC) and NMR spectroscopy. So far, the only published NMR structure originated from a truncated Survivin (aa 1-120) with improved solubility. […] Since the truncated construct still contains all relevant parts of the protein and gives excellent NMR spectra (SI5), we chose it for all our in vitro experiments and denote it as Survivin120 in the following results.
# as §1, §2
# [1] = target: T4, GST-Survivin120–CRM1 interaction (Homo sapiens, UniProt O15392); experiment: Pull-down with GST-Survivin120 wildtype bait, CRM1 and RanQ69L
# T4 construct: the only published NMR structure originated from a truncated Survivin (aa 1-120) with improved solubility; made in house; host or cells: Escherichia coli soluBL21
# T4 sequence (O15392 1-120): as above
# Procedure: (§4) Next, we investigated whether tweezer inhibition of the export complex assembly is compromised upon lysine mutations near the NES. Therefore, pull-down experiments were performed with recombinant GST-tagged Survivin120 wildtype and K90/103T as bait proteins, tweezers, recombinant CRM1 and RanQ69L (Fig. 7g). Controls lacking the Survivin baits were included, as well as isolated peptides without tweezer (Fig. 7h). […] However, for the double lysine mutant GST-Survivin120-K90/103T even the tweezer conjugates lost most of their inhibitory power toward the essential Survivin–CRM1 interaction.
# as §3
# (§5) For analysis of the effective inhibitory tweezer concentration, 200 μg 293T lysate with overexpressed Survivin142-HA was preincubated without ligand or with different concentrations (10 nM to 200 μM) of unmodified tweezer TW, TW-ELTL, TW-ELTLGEFL, or TW-LFEEGLLT for 1 h and then mixed with 35 μg GST-CRM1, 55 μg RanQ69L, and 2 mM dGTP. GSH-beads were incubated with this protein mixture for 2 h under rotation. For analysis of tweezer specificity, 40 μg GST-Survivin120 or GST-Survivin120-K90/103T point mutant was pre-bound to equilibrated GSH-beads in 500 μL pull-down buffer, containing additionally either no ligand or 50 μM unmodified tweezer TW, TW-ELTL, TW-ELTLGEFL, or peptides ELTL and ELTLGEFL, for 1 h under rotation. After washing and blocking, GSH-beads were incubated with a protein mixture consisting of 2 mM dGTP, 50 μg CRM1, and 50 μg RanQ69L for 2 h under rotation.
# (§6) Samples of input and beads taken during pull-down experiments were ran on 12.5 SDS gels and transferred onto 0.2 µM PVDF membranes (Amersham Hybond P 0.2) using a PerfectBlue™ tank electro blotter (Peqlab) at 350 mA for 150 min. Membranes were blocked for 1 h using 5% milk powder in TBS buffer containing 0.1% Tween-20. Next, membranes were incubated in primary antibodies against HA (anti-HA, mouse monoclonal, BioLegend, Covance MMS-101R, 1:1,000), GST (anti-GST, mouse monoclonal, Santa Cruz Biotechnology Inc., sc-57753, 1:1000) or CRM1 (anti-CRM1, rabbit polyclonal, Novus Biologicals Ltd., NB100-79802, 1:10,000) overnight at 4 °C. Secondary horseradish peroxidase (HRP)-conjugated antibody (anti-mouse IgG-HRP, sheep, GE Healthcare, NXA931 or anti-rabbit IgG-HRP, donkey, GE Healthcare, NA934) was then added (1:10,000) for 1 h at room temperature. Chemiluminescence was detected and imaged using the Pierce ECL Plus Western Blotting Substrate kit (Thermo Fisher Scientific) and Chemidoc system (Bio-Rad) or film processor Cawomat 2000 IR (CAWO). Western blots were analyzed by densitometric analysis with ImageJ version 1.52p (U.S. National Institutes of Health), measuring the mean gray intensity of protein bands. Uncropped and unprocessed scans of western blots are deposited in the Source Data file.
# [2] = target: T5, GST-Survivin120-K90/103T–CRM1 interaction (Homo sapiens, UniProt O15392, K103T/K90T); experiment: Pull-down with GST-Survivin120-K90/103T bait, CRM1 and RanQ69L
# T5 construct: the only published NMR structure originated from a truncated Survivin (aa 1-120) with improved solubility; made in house; host or cells: Escherichia coli soluBL21
# T5 sequence (O15392 1-120 K90T/K103T): as the sequence (O15392 1-120) above, with K90T, K103T counted along it
# Procedure: as §4, §3, §5, §6
# [3] = CRM1 band, samples 22-28 (K90/103T)
# T1 sequence (O15392 1-120 K90T/K103T): as the sequence (O15392 1-120) above, with K90T, K103T counted along it
compound,measurement,setting,value
CC(C)C[C@H](NC(=O)Cn1cc(CCOP(=O)(O)Oc2c3c(c(OP(=O)(O)O)c4c2C2CC4c4cc5c(cc42)C2CC5c4ccccc42)C2CC3c3cc4c(cc32)C2CC4c3ccccc32)nn1)C(=O)N[C@@H](Cc1ccccc1)C(=O)N[C@@H](CCC(=O)O)C(=O)N[C@@H](CCC(=O)O)C(=O)NCC(=O)N[C@@H](CC(C)C)C(=O)N[C@@H](CC(C)C)C(=O)N[C@H](C(=O)O)[C@@H](C)O [TW-LFEEGLLT] (HELM PEPTIDE1{[O=C(Cn1cc(CCOP(=O)(O)Oc2c3c(c(OP(=O)(O)O)c4c2C2CC4c4cc5c(cc42)C2CC5c4ccccc42)C2CC3c3cc4c(cc32)C2CC4c3ccccc32)nn1)[*:2]].L.F.E.E.G.L.L.T}$$$$V2.0),Kd,Survivin120 K90/103T,55 ± 24 µM
same,ΔH,"Survivin120 K90/103T; ITC, Survivin120 K90/103T",-1.4 kcal
same,effectiveness compared with TW-ELTLGEFL,Survivin–CRM1 complex; pull-down analyses,about one order of magnitude less effective
same,concentration inhibiting the Survivin/CRM1 interaction efficiently,"Survivin–CRM1 complex; pull-down, concentrations between 1 and 50 µM (SI18)",> 50 µM
same,lower affinity toward wildtype protein compared with TW-ELTLGEFL,Survivin120; ITC KD ratio,~ three
same,-TΔS,"Survivin120; ITC, Survivin120 WT",-4.7 kcal
same,ΔG,"Survivin120; ITC, Survivin120 WT",-5.7 kcal
same,ΔH,"Survivin120; ITC, Survivin120 WT",-1.0 kcal
same,Kd,"Survivin120; ITC, Survivin120 WT, PBS pH 7.4, 25 °C, one set of sites model, mean ± SEM of fit",68 ± 22 µM
"ELTLGEFL peptide: isolated peptide ELTLGEFL without tweezer, pull-down control",CRM1: Peak area determined with ImageJ,"[1]; CRM1 band, samples 15-21 (WT)",27360.9
same,CRM1 intensity_normalised on GST-Surv intensity (samples 1-14),"[1]; CRM1 band, samples 15-21 (WT)",0.3991
same,CRM1: Control w/o GST-Survivin subtracted (sample 16 or 23),"[1]; CRM1 band, samples 15-21 (WT), sample 16 subtracted",22503.2
same,GST-Surv: Peak area determined with ImageJ,"[1]; GST-Surv bait band, samples 1-7 (WT according to the summary in r39-r41)",57214.6
same,GST-Surv: Control w/o GST-Survivin subtracted (sample 2 or 9),"[1]; GST-Surv bait band, samples 1-7 (WT), sample 2 subtracted",56379.3
same,"Normalised CRM1 intensity, summary of replicates I and II","[1]; WT, w/o tweezer = 100, replicates I and II",112.936%
same,CRM1 intensity_normalised on GST-Surv intensity (samples 1-14) and CRM1 intensity w/o incubation (sample 15 or 22),"[1]; samples 15-21 (WT), fraction of sample 15 (w/o Tweezer)",1.129
same,CRM1 intensity_normalised on GST-Surv intensity (samples 1-14) and CRM1 intensity w/o incubation (sample 15 or 22),"[1]; samples 15-21 (WT), w/o Tweezer = 100",112.936%
same,CRM1: Peak area determined with ImageJ,[2]; [3],38827.8
same,CRM1 intensity_normalised on GST-Surv intensity (samples 1-14),[2]; [3],0.485
same,CRM1: Control w/o GST-Survivin subtracted (sample 16 or 23),"[2]; CRM1 band, samples 22-28 (K90/103T), sample 23 subtracted",34118.6
same,GST-Surv: Peak area determined with ImageJ,"[2]; GST-Surv bait band, samples 8-14 (K90/103T according to the summary in r39-r41)",72953.9
same,GST-Surv: Control w/o GST-Survivin subtracted (sample 2 or 9),"[2]; GST-Surv bait band, samples 8-14 (K90/103T), sample 9 subtracted",70354.7
same,"Normalised CRM1 intensity, summary of replicates I and II","[2]; K90/103T, w/o tweezer = 100, replicates I and II",76.5436%
same,CRM1 intensity_normalised on GST-Surv intensity (samples 1-14) and CRM1 intensity w/o incubation (sample 15 or 22),"[2]; samples 22-28 (K90/103T), fraction of sample 22 (w/o tweezer)",0.7654
same,CRM1 intensity_normalised on GST-Surv intensity (samples 1-14) and CRM1 intensity w/o incubation (sample 15 or 22),"[2]; samples 22-28 (K90/103T), w/o tweezer = 100",76.5436%

# — article PMC7940618, “Specific inhibition of the Survivin–CRM1 interaction by peptide-modified molecular tweezers” (Nature Communications, 2021)
